Data taken from patent publication US20030073808.

Key:
[1] = system: ChePep-6 (AFTA combined with a peptide having SEQ ID No. 8)
[2] = system: ChePep-2 (IDA coupled with a peptide having SEQ ID No. 5)
[3] = system: ChePep-3 (PSDE combined with a peptide having SEQ ID No. 6)
[4] = system: ChePep-1 (PSDE coupled with the peptide having SEQ ID No. 4)
[5] = system: ChePep-5 (AFTA combined with a peptide having SEQ ID No. 7)

Active MMP-9 enzyme
FRET substrate peptide cleavage by MMP-9 [1]: ChePep-6 is an effective MMP-9 regulator at low molar stoichiometries
FRET substrate peptide cleavage by MMP-9 [2]: regulates MMP-9 in the fluorescence resonance energy transfer (FRET) assay in a dose dependent manner
FRET substrate peptide cleavage by MMP-9 [3]: show nearly identical ability to regulate MMP-9 in the standard FRET assay
hydrolysis of fluoresceinated collagen by MMP-9 [4]: prevents the enzyme from degrading fluoresceinated collagen in a dose dependent manner
FRET substrate peptide cleavage by MMP-9 [5]: ChePep-5 proves to be a better regulator than the IDA or the PSDE based chelating peptides
